# Experimental data published in the supplement of paper PMC9112550, “Optimization of the antimicrobial peptide Bac7 by deep mutational scanning” (BMC Biology, 2022).
# System: Escherichia coli TOP10
# Assay: shrunken log2 fold change of peptide-encoding DNA abundance (4.5 h post-induction vs induction); higher = less antimicrobial activity (less host growth inhibition)
# Details: time post-induction: 4.5 h; library: site-saturation at positions 5, 18, 19, 20
# 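Also: peptides expressed intracellularly from a pBAD plasmid library in pooled LB shake-flask culture, induced with 0.3% L-arabinose, DNA abundance read by NGS, three biological replicates, DESeq2 with apeglm shrinkage.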
row,Sequence,shrunken log2 fold change
1,RRIRIRPPRLPRPRPRPSMAPRP,-0.531
2,RRIRIRPPRLPRPRPRPKVGPRP,0.164
3,RRIRHRPPRLPRPRPRPHIKPRP,-0.83
4,RRIRKRPPRLPRPRPRPKIKPRP,0.447
5,RRIRERPPRLPRPRPRPMTVPRP,-0.124
6,RRIRPRPPRLPRPRPRPIGLPRP,0.155
7,RRIRHRPPRLPRPRPRPDQTPRP,-0.0379
8,RRIRRRPPRLPRPRPRPKPQPRP,0.403
9,RRIRWRPPRLPRPRPRPGSFPRP,0.0155
10,RRIRFRPPRLPRPRPRPMQMPRP,0.142
11,RRIRARPPRLPRPRPRPTIYPRP,0.0113
12,RRIRNRPPRLPRPRPRPVGQPRP,-0.185
13,RRIRMRPPRLPRPRPRPKDDPRP,2.12
14,RRIRIRPPRLPRPRPRPPAIPRP,0.00229
15,RRIRIRPPRLPRPRPRPNIRPRP,-1.14
16,RRIRNRPPRLPRPRPRPSNSPRP,-0.235
17,RRIRWRPPRLPRPRPRPTLHPRP,0.132
18,RRIRYRPPRLPRPRPRPRNAPRP,0.00628
19,RRIRDRPPRLPRPRPRPYVHPRP,-0.407
20,RRIRKRPPRLPRPRPRPQNTPRP,0.00556
21,RRIRFRPPRLPRPRPRPKMNPRP,-0.345
22,RRIRCRPPRLPRPRPRPDITPRP,-0.022
23,RRIRARPPRLPRPRPRPLSAPRP,0.636
24,RRIRSRPPRLPRPRPRPSKKPRP,-0.334
25,RRIRVRPPRLPRPRPRPILDPRP,-0.224

row,Sequence,shrunken log2 fold change
1,RRIRYRPPRLPRPRPRPPMAPRP,0.298
2,RRIRWRPPRLPRPRPRPGNRPRP,-0.00977
3,RRIRERPPRLPRPRPRPKRDPRP,0.024
4,RRIRLRPPRLPRPRPRPNEVPRP,-0.0062
5,RRIRYRPPRLPRPRPRPAPNPRP,-0.01
6,RRIRTRPPRLPRPRPRPNPTPRP,0.207
7,RRIRWRPPRLPRPRPRPWISPRP,-0.124
8,RRIRMRPPRLPRPRPRPMLEPRP,0.0346
9,RRIRARPPRLPRPRPRPKNQPRP,0.249
10,RRIRRRPPRLPRPRPRPTPCPRP,0.774
11,RRIRTRPPRLPRPRPRPTVEPRP,-0.152
12,RRIRARPPRLPRPRPRPWLCPRP,0.116
13,RRIRIRPPRLPRPRPRPDMAPRP,-0.0603
14,RRIRCRPPRLPRPRPRPYSCPRP,-0.833
15,RRIRERPPRLPRPRPRPCVFPRP,0.0387
16,RRIRPRPPRLPRPRPRPNHRPRP,-0.11
17,RRIRSRPPRLPRPRPRPKETPRP,-0.0164
18,RRIRRRPPRLPRPRPRPTIRPRP,0.129
19,RRIRKRPPRLPRPRPRPSFQPRP,0.0564
20,RRIRMRPPRLPRPRPRPYQEPRP,-0.0194
21,RRIRWRPPRLPRPRPRPKTNPRP,0.239
22,RRIRLRPPRLPRPRPRPLNGPRP,-0.217
23,RRIRFRPPRLPRPRPRPQHPPRP,-0.326
24,RRIRERPPRLPRPRPRPMLKPRP,-0.292
25,RRIRTRPPRLPRPRPRPCRKPRP,-0.0644
